Measurements taken from the supplement of paper PMC7125110.
± gives the standard error. Fewer inactive variants are shown than the library holds.

B1: glmS ribozyme (parent)
chain: AUAAAAGCGCCAGAACUACAGAAAUGUAGUUGACGAGGAGGAGGUUUAUCGAAUUUUCGGCGGAUGCCUCCAAA

How the values were obtained:
Conditions in all cases: with glucosamine-6-phosphate
glucosamine-6-phosphate [1] = variants of: B1; assay: self-cleavage kobs at 160 uM GlcN6P; higher = faster cleavage; RNA array
Outline: (§1)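 Glucosamine-6-phosphate in HEPES/KCl/Mg(OAc)2 buffer, at 40 μM to 10 mM, was flowed over barcoded ribozyme variants transcribed in situ by E. coli RNA polymerase on sequenced MiSeq chips. Tracking was through a hybridised Cy3 probe at 37 °C. kobs, kcat and KM came from exponential decay fits and weighted Michaelis–Menten fits of normalised per-tile medians.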

glucosamine-6-phosphate [2] = variants of: B1; assay: self-cleavage kobs at 640 uM GlcN6P; higher = faster cleavage; RNA array
Outline: as §1

glucosamine-6-phosphate [3] = variants of: B1; assay: self-cleavage kobs at 2500 uM GlcN6P; higher = faster cleavage; RNA array
Outline: as §1

glucosamine-6-phosphate [4] = variants of: B1; assay: self-cleavage kobs at 10000 uM GlcN6P; higher = faster cleavage; RNA array
Outline: as §1

Variant | self-cleavage kobs at 160 uM GlcN6P (glucosamine-6-phosphate [1]) | self-cleavage kobs at 640 uM GlcN6P (glucosamine-6-phosphate [2]) | self-cleavage kobs at 2500 uM GlcN6P (glucosamine-6-phosphate [3]) | self-cleavage kobs at 10000 uM GlcN6P (glucosamine-6-phosphate [4])
A52G C68G U69C | 5.98e-05 ± 2.7e-05 s⁻¹ | – | – | –
G62U G66C | < 1e-05 s⁻¹ | < 1e-05 s⁻¹ | < 1e-05 s⁻¹ | < 1e-05 s⁻¹
A6G G29C C70G | < 1e-05 s⁻¹ | – | < 1e-05 s⁻¹ | < 1e-05 s⁻¹
A42C U54G | < 1e-05 s⁻¹ | – | – | –
G32U C50G | 5.71e-05 ± 2e-05 s⁻¹ | – | – | –
A6C C10G A36C U49C A53U A64U | < 1e-05 s⁻¹ | – | – | –
G35A G43A U47C U56C | < 1e-05 s⁻¹ | < 1e-05 s⁻¹ | – | –
G29A A52C | < 1e-05 s⁻¹ | < 1e-05 s⁻¹ | – | < 1e-05 s⁻¹
G38A G44A C50U | < 1e-05 s⁻¹ | < 1e-05 s⁻¹ | – | –
A33C U69C | < 1e-05 s⁻¹ | < 1e-05 s⁻¹ | – | –
C10A A14C G37C G44U C61U | < 1e-05 s⁻¹ | – | – | –
A42U A52C A53G | < 1e-05 s⁻¹ | – | – | –
C10U A12G G63U | < 1e-05 s⁻¹ | – | < 1e-05 s⁻¹ | –
G7U C10G G13U A15U A39G | < 1e-05 s⁻¹ | < 1e-05 s⁻¹ | < 1e-05 s⁻¹ | –
G32C G51A C61G | < 1e-05 s⁻¹ | – | – | –
G40A G51U | < 1e-05 s⁻¹ | < 1e-05 s⁻¹ | – | –
G35A C50A | < 1e-05 s⁻¹ | < 1e-05 s⁻¹ | < 1e-05 s⁻¹ | –
C16U G60C | < 1e-05 s⁻¹ | < 1e-05 s⁻¹ | < 1e-05 s⁻¹ | –
G32A G37C | < 1e-05 s⁻¹ | < 1e-05 s⁻¹ | < 1e-05 s⁻¹ | < 1e-05 s⁻¹
G9U C58U | < 1e-05 s⁻¹ | < 1e-05 s⁻¹ | < 1e-05 s⁻¹ | –
G21U C71G | 0.000226 ± 5.1e-05 s⁻¹ | 0.000218 ± 3.9e-05 s⁻¹ | 0.000294 ± 5.9e-05 s⁻¹ | –
U47A U65A | 0.000347 ± 7.5e-05 s⁻¹ | 0.00132 ± 0.00027 s⁻¹ | 0.00331 ± 0.00064 s⁻¹ | –
C8A C11U C50G A53U G63A | 0.00012 ± 2.8e-05 s⁻¹ | 0.000594 ± 0.00015 s⁻¹ | 9.63e-05 ± 3.3e-05 s⁻¹ | –
U57G C58G A64G | 6.2e-05 ± 2.9e-05 s⁻¹ | 8.58e-05 ± 3.5e-05 s⁻¹ | 4.48e-05 ± 1.9e-05 s⁻¹ | –
A12C C34U | < 1e-05 s⁻¹ | – | < 1e-05 s⁻¹ | < 1e-05 s⁻¹
C11A A48C | < 1e-05 s⁻¹ | < 1e-05 s⁻¹ | < 1e-05 s⁻¹ | –
